# According to IntAct's records for PubMed 10846174:
# B1: Apoptosis regulator ced-9 (Caenorhabditis elegans), P41958 (parent)
# chain: MTRCTADNSLTNPAYRRRTMATGEMKEFLGIKGTEPTDFGINSDAQDLPSPSRQASTRRMSIGESIDGKINDWEEPRLDIEGFVVDYFTHRIRQNGMEWFGAPGLPCGVQPEHEMMRVMGTIFEKKHAENFETFCEQLLAVPRISFSLYQDVVRTVGNAQTDQCPMSYGRLIGLISFGGFVAAKMMESVELQGQVRNLFVYTSLFIKTRIRNNWKEHNRSWDDFMTLGKQMKEDYERAEAEKVGRRKQNRRWSMIGAGVTAGAIGIVGVVVCGRMMFSLK
# partner: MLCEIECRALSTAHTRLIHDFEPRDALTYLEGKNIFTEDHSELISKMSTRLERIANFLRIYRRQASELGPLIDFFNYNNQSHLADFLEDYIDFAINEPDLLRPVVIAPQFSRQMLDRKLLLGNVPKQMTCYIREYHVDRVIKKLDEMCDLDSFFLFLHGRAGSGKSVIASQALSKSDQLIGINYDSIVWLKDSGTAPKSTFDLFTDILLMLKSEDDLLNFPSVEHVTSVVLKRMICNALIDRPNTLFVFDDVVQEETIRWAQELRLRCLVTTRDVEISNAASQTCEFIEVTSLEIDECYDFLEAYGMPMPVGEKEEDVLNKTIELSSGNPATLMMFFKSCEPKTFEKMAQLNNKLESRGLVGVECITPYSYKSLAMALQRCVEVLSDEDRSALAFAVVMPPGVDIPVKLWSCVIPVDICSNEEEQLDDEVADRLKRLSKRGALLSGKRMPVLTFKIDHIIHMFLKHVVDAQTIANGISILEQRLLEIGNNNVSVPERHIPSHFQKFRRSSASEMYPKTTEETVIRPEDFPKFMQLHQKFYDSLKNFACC
# B2: Apoptosis regulator ced-9 (Caenorhabditis elegans), P41958 (parent)
# chain: B1 chain
# partner: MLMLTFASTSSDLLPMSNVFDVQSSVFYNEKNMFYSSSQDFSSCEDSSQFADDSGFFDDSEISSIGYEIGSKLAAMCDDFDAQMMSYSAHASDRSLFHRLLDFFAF
# Variants of: B1
# Settings: with ced4_caeel ced-4, P30429
row,effect of a mutation on the interaction,Variant
1,with no effect,G169E

# Variants of: B2
# Settings: with egl1_caeel egl-1, O61667
row,effect of a mutation on the interaction,Variant
1,with no effect,G169E

# Variants of: B2
# Settings: with egl1_caeel egl-1, O61667
# Remark: another data set of the same source
row,effect of a mutation on the interaction,Variant
1,decreasing interaction strength,G169E
